Source: US20090111753A1, “Nogo-A Polypeptide Fragments, Variant Nogo Receptor-1 Polypeptides, and Uses Thereof” (Yale University, priority 2004, published 2009)
Substitutions are numbered along the chain they refer to. Names and notes keep the numbering of the source.

B1: AP fusion protein with the B4C fragment of Amino-Nogo-A fused directly to Nogo-66 (ligand)
chain: LLPPDVSALATQAEIESIVKPKVLVKEAEKKLPSDTEKEDRSPSAIFSAELSKTSVVDLLYWRDIKKTGRIYKGVIQAIQKSDEGHPFRAYLESEVAISEELVQKYSNSALGHVNCTIKELRRLFLVDDLVDSLK
notes: domain: Nogo-66; also called AP-B4C66; AP-B4C-66; not shown: alkaline phosphatase (AP), vector pcAP6
B2: NgR expressed on COS-7 cells (species not stated) (receptor)
chain: CPGACVCYNEPKVTTSCPQQGLQAVPVGIPAASQRIFLHGNRISHVPAASFRACRNLTILWLHSNVLARIDAAAFTGLALLEQLDLSDNAQLRSVDPATFHGLGRLHTLHLDRCGLQELGPGLFRGLAALQYLYLQDNALQALPDDTFRDLGNLTHLFLHGNRISSVPERAFRGLHSLDRLLLHQNRVAHVHPHAFRDLGRLMTLYLFANNLSALPTEALAPLRALQYLRLNDNPWVCDCRARPLWAWLQKFRGSSSEVPCSLPQRLAGRDLKRLAANDLQGCAVATGPYHPIWTGRATDEEPLGLPKCCQPDAADKASVLEPGRPASAGNALKGRVPPGDSPPGNGSGPRHINDSPFGTLPGSAEPPLTAVRPEGSEPPGFPTSGPRRRPGCSRKNRTRSHCRLGQAGSGGGGTGDSEGSGALPSLTCSLTPLGLALVLWTVLGPC

Columns and labels:
[1] = target: T1, NgR expressed on COS-7 cells (species not stated); assay: AP-ligand binding to NgR-expressing COS-7 cells (Scatchard)
T1 chain: B2 chain

[2] = target: T2, human NgR1 alanine mutant 158, 160 (human, UniProt Q9BZR6 27-473); assay: AP-ligand binding, COS-7
T2 sequence: B2 chain with Y132A, Y134A

[3] = target: T3, human NgR1 alanine mutant 232, 234 (human, UniProt Q9BZR6 27-473); assay: AP-ligand binding, COS-7
T3 sequence: B2 chain with Y206A, F208A

[4] = target: T4, human NgR1 alanine mutant 82, 179 (human, UniProt Q9BZR6 27-473); assay: AP-ligand binding, COS-7
T4 sequence: B2 chain with N56A, N153A

[5] = target: T5, human NgR1 alanine mutant 163 (human, UniProt Q9BZR6 27-473); assay: AP-ligand binding, COS-7
T5 sequence: B2 chain with D137A

[6] = target: T6, human NgR1 alanine mutant 133, 136 (human, UniProt Q9BZR6 27-473); assay: AP-ligand binding, COS-7
T6 sequence: B2 chain with H107A, H110A

[7] = target: T7, human NgR1 alanine mutant 182, 186 (human, UniProt Q9BZR6 27-473); assay: AP-ligand binding, COS-7
T7 sequence: B2 chain with H156A, H160A

[8] = target: B1; assay: AP fusion on NgR-expressing COS-7 cells
Description: (§1) Several alkaline phosphatase (AP) fusion proteins containing various Nogo-A segments derived from regions between the amino terminus and the first hydrophobic segment were examined to identify the mechanism of Amino-Nogo-A action. To generate additional AP fusion proteins, human amino Nogo fragments were amplified and ligated to the pcAP6 vector digested with restriction enzymes EcoRI and XhoI as described (Fournier, A. E., et al., Nature 409:341-346 (2001)). Plasmids were then transfected into HEK293T cells and conditioned media were collected after 7 days. None of these fragments bind with high affinity to non-transfected COS-7 cells. […] This binding is saturable with a Kd indistinguishable from that for AP-Nogo-66 association with NgR (Table I). To better define the region responsible for Amino-Nogo interaction with NgR, a range of truncation mutants of Amino-Nogo were examined as AP fusion proteins.
(§2) Binding Kds for AP fused Amino-Nogo fragments were measured by applying conditioned media containing AP fusion protein to NgR expressing COS-7 cells. Bound AP was stained and measured.

[9] = target: T8, AP-fused Amino-Nogo fragment B4 (a.a. 877-1018) (human, UniProt Q9NQC3 877-1018); assay: AP fusion on NgR-expressing COS-7 cells
T8 construct: also called AmNg B4; AP-B4; not shown: alkaline phosphatase (AP), vector pcAP6
T8 sequence: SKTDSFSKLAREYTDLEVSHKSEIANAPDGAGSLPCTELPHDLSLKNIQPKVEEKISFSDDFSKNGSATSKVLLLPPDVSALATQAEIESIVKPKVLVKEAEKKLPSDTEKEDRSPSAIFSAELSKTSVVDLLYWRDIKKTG
Description: as §1, §2

[10] = target: T9, AP-fused Amino-Nogo fragment B4C (a.a. 950-1018) (human, UniProt Q9NQC3 950-1018); assay: AP fusion on NgR-expressing COS-7 cells
T9 construct: also called AmNg B4C; AP-B4C; not shown: alkaline phosphatase (AP), vector pcAP6
T9 sequence: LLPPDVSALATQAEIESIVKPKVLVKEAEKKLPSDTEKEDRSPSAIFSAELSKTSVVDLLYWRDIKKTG
Description: as §1, §2

[11] = target: T10, AP-fused Amino-Nogo fragment B (a.a. 622-1018) (human, UniProt Q9NQC3 622-1018); assay: AP fusion on NgR-expressing COS-7 cells
T10 construct: also called AmNg B; AP-AmNgB; not shown: alkaline phosphatase (AP), vector pcAP6
T10 sequence: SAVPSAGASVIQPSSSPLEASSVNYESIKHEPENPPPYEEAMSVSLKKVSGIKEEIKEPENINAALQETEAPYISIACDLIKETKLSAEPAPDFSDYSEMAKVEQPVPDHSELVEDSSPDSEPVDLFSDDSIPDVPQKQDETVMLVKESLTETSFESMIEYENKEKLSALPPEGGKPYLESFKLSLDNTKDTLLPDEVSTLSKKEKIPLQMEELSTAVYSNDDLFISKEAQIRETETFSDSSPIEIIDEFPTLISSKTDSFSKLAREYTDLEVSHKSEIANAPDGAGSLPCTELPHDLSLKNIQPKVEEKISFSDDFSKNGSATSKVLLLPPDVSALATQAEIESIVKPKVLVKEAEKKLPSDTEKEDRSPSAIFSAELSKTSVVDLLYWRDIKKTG
Description: as §1, §2

Binder | Kd [1] | binding result [2] | binding result [3] | binding result [4] | binding result [5] | binding result [6] | binding result [7] | Kd [8] | Kd [9] | Kd [10] | Kd [11]
B1 | 0.42 nM | no binding | no binding | no binding | no binding | no binding | no binding | – | – | – | –
B2 | – | – | – | – | – | – | – | < 1 nM | 9.01 nM | 3.51 nM | 6.66 nM
